Measured values published in patent publication US20240092919A1 (Ablynx, published 2024).

T1: Cynomolgus TCR(AEA41865/AEA41866)-zipper protein (cynomolgus monkey)
T1 construct: also called cyTCR-zipper protein; cynoTCR zipper
T1 TCR alpha: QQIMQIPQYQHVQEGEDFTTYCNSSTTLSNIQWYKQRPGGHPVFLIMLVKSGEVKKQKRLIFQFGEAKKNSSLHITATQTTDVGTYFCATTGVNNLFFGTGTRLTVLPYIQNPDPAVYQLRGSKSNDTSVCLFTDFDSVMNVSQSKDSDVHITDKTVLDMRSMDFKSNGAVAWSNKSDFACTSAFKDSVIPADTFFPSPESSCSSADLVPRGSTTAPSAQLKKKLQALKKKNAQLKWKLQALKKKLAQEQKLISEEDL
T1 TCR beta: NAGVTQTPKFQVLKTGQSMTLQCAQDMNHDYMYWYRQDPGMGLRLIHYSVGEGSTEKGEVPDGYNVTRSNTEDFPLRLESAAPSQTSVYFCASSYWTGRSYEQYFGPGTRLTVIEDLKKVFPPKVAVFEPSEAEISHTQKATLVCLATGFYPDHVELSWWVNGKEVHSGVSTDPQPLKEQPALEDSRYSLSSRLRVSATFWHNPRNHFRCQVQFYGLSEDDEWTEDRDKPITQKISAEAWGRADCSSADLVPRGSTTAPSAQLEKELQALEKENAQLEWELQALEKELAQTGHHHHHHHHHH


Target: T1, Cynomolgus …
Experiment: SPR ProteOn off-rate screen

Binder | koff [s⁻¹]
T017000450 (VHH) VHH: EVQLVESGGGVVQPGGSLRLSCVASGYVHQINFLGWYRQAPGKEREKVAHISIGDQTDYADSAKGRFTISRDESKNMVYLQMNSLRPEDTALYFCRAMSRIWPYDYWGQGTLVTVSS | 0.0017
T017000461 (VHH) VHH: EVQLVESGGGVVQPGGSLRLSCVASGDVHQINFYGWYRQAPGKEREKVAHISIGDQTDYADSAKGRFTISRDESKNMVYLQMNSLRPEDTALYFCRAMSRIWPYDYWGQGTLVTVSS | 0.00206
T017000473 (VHH) VHH: EVQLVESGGGVVQPGGSLRLSCVASGYVHQINFYGWYRQAPGKEREKVAHISIGDQTDYADSAKGRFTISRDESKNMVYLQMNSLRPEDTALYFCRAMSRIYPYDYWGQGTLVTVSS | 0.00238
T017000498 (VHH) VHH: EVQLVESGGGVVQPGGSLRLSCVASGAVHKINFYGWYRQAPGKEREKVAHISIGDQTDYADSAKGRFTISRDESKNMVYLQMNSLRPEDTALYFCRAMSRIWPYDWWGQGTLVTVSS | 0.00223
T017000499 (VHH) VHH: EVQLVESGGGVVQPGGSLRLSCVASGYVHKLNFLGWYRQAPGKEREKVAHISIGDQTDYADSAKGRFTISRDESKNMVYLQMNSLRPEDTALYFCRAMSRIWPYDYWGQGTLVTVSS | 0.00106
T017000505 (VHH) VHH: EVQLVESGGGVVQPGGSLRLSCVASGDVHQLNFLGWYRQAPGKEREKVAHISIGDQTDYADSAKGRFTISRDESKNMVYLQMNSLRPEDTALYFCRAFSKIYPYDYWGQGTLVTVSS | 0.00143
T017000509 (VHH) VHH: EVQLVESGGGVVQPGGSLRLSCVASGAVHKINFLGWYRQAPGKEREKVAHISIGDQTDYADSAKGRFTISRDESKNMVYLQMNSLRPEDTALYFCRAMSKIWPYDWWGQGTLVTVSS | 0.000609
T017000515 (VHH) VHH: EVQLVESGGGVVQPGGSLRLSCVASGAVHKINFLGWYRQAPGKEREKVAHISIGDQTDYADSAKGRFTISRDESKNMVYLQMNSLRPEDTALYFCRAMSRIWPYDYWGQGTLVTVSS | 0.00126
T017000518 (VHH) VHH: EVQLVESGGGVVQPGGSLRLSCVASYSVHQLNFLGWYRQAPGKEREKVAHISIGDQTDYADSAKGRFTISRDESKNMVYLQMNSLRPEDTALYFCRAMSRIWPYDYWGQGTLVTVSS | 0.0268
T017000521 (VHH) VHH: EVQLVESGGGVVQPGGSLRLSCVASGSVHQLNFYGWYRQAPGKEREKVAHISIGDQTDYADSAKGRFTISRDESKNMVYLQMNSLRPEDTALYFCRAMSRIWPYDYWGQGTLVTVSS | 0.00275
T017000530 (VHH) VHH: EVQLVESGGGVVQPGGSLRLSCVASGAVHKLNFLGWYRQAPGKEREKVAHISIGDQTDYADSAKDRFTISRDESKNMVYLQMNSLRPEDTALYFCRAMSRIYPYDYWGQGTLVTVSS | 0.00182
T017000531 (VHH) VHH: EVQLVESGGGVVQPGGSLRLSCVASGSVHKINFLGWYRQAPGKEREKVAHISIGDQTDYADSAKGRFTISRDESKNMVYLQMNSLRPEDTALYFCRAMSRIWPYDWWGQGTLVTVSS | 0.00232
T017000538 (VHH) VHH: EVQLVESGGGVVQPGGSLRLSCVASGYVHKLNFYGWYRQAPGKEREKVAHISIGDQTDYADSAKGRFTISRDESKNMVYLQMNSLRPEDTALYFCRAMSRIWPYDYWGQGTLVTVSS | 0.000766
T017000539 (VHH) VHH: EVQLVESGGGVVQPGGSLRLSCVASGYVHKINFYGWYRQAPGKEREKVAHISIGDQTDYADSAKGRFTISRDESKNMVYLQMNSLRPEDTALYFCRAMSRIWPYDWWGQGTLVTVSS | 0.00151
